Measured values published in publication PMC11661604 (2024).
Like-named read-outs stand apart in the source and are kept apart here.

B1: LA1-3-Fc (Fc fusion)
chain: not shown

Experiments:
[1] = biological target: T1, native Semliki Forest virus (SFV) virion (Semliki Forest virus); test: SPR
[2] = biological target: T1, native Semliki Forest virus (SFV) virion; test: SPR; remark: listed apart in the source

Row | Binder | Kd [1] | Kd [2]
1 | MRTCRIHEISCGAHSTQCIPVSWRCDGENDCDSGEDEENCGNI (Fc fusion) [LA3-Fc] | 1170 nM | 1020 nM
2 | MRTCRIHEISCGAHSTACIPVSWRCDGENDCDSGEDEENCGNI (Fc fusion) [LA3-Fc Q126A] | 11700 nM | 
3 | MRTCAIHEISCGAHSTQCIPVSWRCDGENDCDSGEDEENCGNI (Fc fusion) [LA3-Fc R114A] | 1580 nM | 
4 | B1 |  | 523 nM
